Results published in patent US20200247885A1.

Biological target: murine P2X purinoceptor 4 (Q9JJX6) (mouse) (UniProt Q9JJX6)
Test: cell-based or functional assay

Chain of UniProt Q9JJX6 (Q9JJX6 whole entry, form in doubt): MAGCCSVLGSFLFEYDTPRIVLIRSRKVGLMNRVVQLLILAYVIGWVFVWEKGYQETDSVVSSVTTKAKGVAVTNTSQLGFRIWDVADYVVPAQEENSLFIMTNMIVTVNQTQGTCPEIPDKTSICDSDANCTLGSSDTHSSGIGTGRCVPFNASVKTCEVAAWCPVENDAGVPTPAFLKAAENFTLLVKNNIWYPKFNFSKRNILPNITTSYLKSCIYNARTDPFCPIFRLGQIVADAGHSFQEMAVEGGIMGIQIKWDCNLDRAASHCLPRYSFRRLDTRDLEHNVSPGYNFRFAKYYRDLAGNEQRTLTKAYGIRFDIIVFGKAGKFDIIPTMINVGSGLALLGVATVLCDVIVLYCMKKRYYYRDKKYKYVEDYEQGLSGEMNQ

fraction of control current (fraction of control current): 1.08
Substance: hIgG1 NIP 228 TM (antibody)
